# Test results published in patent publication US20220119446A1, “BIOMARKERS AND TREATMENT OF NEURONAL INJURY AND NEURODEGENERATION” (Board of Supervisons of Louisiana State University and …, priority 2018, published 2022).
# B1: Wnt3a: recombinant protein, R&D systems 5036-WN; canonical Wnt ligand (protein, UniProt P56704 19-352, looked up)
# Protein Wnt-3a: SYPIWWSLAVGPQYSSLGSQPILCASIPGLVPKQLRFCRNYVEIMPSVAEGIKIGIQECQHQFRGRRWNCTTVHDSLAIFGPVLDKATRESAFVHAIASAGVAFAVTRSCAEGTAAICGCSSRHQGSPGKGWKWGGCSEDIEFGGMVSREFADARENRPDARSAMNRHNNEAGRQAIASHMHLKCKCHGLSGSCEVKTCWWSQPDFRAIGDFLKDKYDSASEMVVEKHRESRGWVETLRPRYTYFKVPTERDLVYYEASPNFCEPNPETGSFGTRDRTCNVSSHGIDGCDLLCCGRGHNARAERRREKCRCVFHWCCYVSCQECTRVYDVHTCK
# Test system: β-catenin
# Assay: TOP Flash/FOP flash luciferase reporter in hpRPE cells
# Format: cell-based, human
# Details: hpRPE cells undergoing UOS+/−NPD1
# Text: We tested whether or not Wnt5a activates […] using TOP Flash/FOP flash reporter system in hpRPE cells undergoing UOS+/−NPD1 (FIG. 1g).
# Except TOP/FOP flash, the Luciferase activity can be standardized using a construct expressing GFP constitutively under CMV virus promoter. To assess luciferase activity, cell lysates can be obtained using Passive Lysis Buffer (Promega, Madison, Wis.) and mixed with a luciferase assay reagent (Promegam Madison, Wis.). Chemiluminescence produced by luciferase and fluorescence from GFP can be detected using Appliscan 2.3. Data can be analyzed using SkanIt 2.3 (Thermo Fisher Scientific, Waltham, Mass.).
# Except TOP/FOP flash, the Luciferase activity was standardized using a construct expressing GFP constitutively under CMV virus promoter. To assess luciferase activity, cell lysates were obtained using Passive Lysis Buffer (Promega) and mixed with a luciferase assay reagent (Promega). Chemiluminescence produced by luciferase and fluorescence from GFP was detected using Appliscan 2.3. Data were analyzed using SkanIt 2.3 (Thermo Fisher Scientific).
molecule,measurement,value
B1,β-catenin activity (luciferase),rose almost twice
